Laboratory results reported in patent US11672846B2, “Soluble bacterial and fungal proteins and methods and uses thereof in inhibiting and dispersing biofilm” (priority 2014, dated 2023).
Read-outs that look alike come from different tables or passages of the source.

Assays:
[1] = tested on: Pel biofilms of P. aeruginosa PAO1 ΔwspFΔpslpBADpel; experiment: Dispersal of pre-formed Pel biofilms (crystal violet)
Text: The methodology to generate pre-formed Pel biofilms is identical to that of Psl biofilms, described in Example 4 with the exception that the strain used is P. aeruginosa PAO1 ΔwspFΔpslpBADpel.

[2] = tested on: pre-formed A. fumigatus GAG biofilms; format: cell-based; conditions: crystal violet
A. fumigatus GAG biofilm = experiment: Inhibition of GAG-dependent A. fumigatus biofilm formation (crystal violet); format: cell-based; conditions: 20 h in Brian media, crystal violet; listed as P. protogens PelA35-291
[3] = tested on: P. aeruginosa PAO1 ΔwspFΔpslpBADpel; experiment: Inhibition of Pel biofilm formation in static culture (crystal violet); conditions: read-out: EC50 of Pel biofilm inhibition; static PAO1ΔwspFΔpslPBADpel culture

B1: PelA35-291: PelA residues 35-291 from P. protogens Pf-5, SEQ ID NO: 13 (protein, listed as Pseudomonas protogens)
chain: AAPASVGFWYAEQPPLQELAQFEWAVVEPGHMASADVATLRKLGSQPFAYLSVGEFDGNRAALAKQALAQGASPVRNKAWDSQVMDIATPAWREHLFKRAKALQDQGYAGLFLDTLDSFQLLPEADREPQRKALASFLRELHSRLPNLKLFFNRGFEVLGELDGVASAVAVESIHAGWDASAKRYRPVSEADRTWLEGELKPLRARNIPLVAIDYLPANRREEARKLVRQLSQEGFIPVVTTPDLNALSMSTVEVQP
time to disperse pre-formed Pel biofilm ([1]; 1 μM enzyme): 30 min
dispersal of pre-formed Pel biofilm (in words) ([1]; 10-fold dilution of 1 μM, 1 h): disperse nearly all the biofilm
dispersal of pre-formed GAG biofilm (in words) [2]: elimination of the GAG biofilm
dispersal of pre-formed GAG biofilm (in words) ([2]; listed as P. protogens PelA35-291): elimination of the GAG biofilms
prevention of GAG biofilm formation (in words) (A. fumigatus GAG biofilm): shown to prevent GAG-dependent biofilm formation
EC50 [3]: 69.3 ± 1.2 nM
